# Where two headings read alike, the source gives them in different places.
# B1: NP1(K1A) (natural protein, Rhodnius prolixus, UniProt Q26239 24-207, looked up)
# chain: ACTKNALAQTGFNKDKYFNGDVWYVTDYLDLEPDDVPKRYCAALAAGTASGKLKEALYHYDPKTQDTFYDVSELQEESPGKYTANFKKVEKNGNVKVDVTSGNYYTFTVMYADDSSALIHTCLHKGNKDLGDLYAVLNRNKDTNAGDKVKGAVTAASLKFSDFISTKDNKCEYDNVSLKSLLTK
# B2: native N-terminal NP1 with C-terminal His6 tag (natural protein, Rhodnius prolixus, UniProt Q26239 24-207, looked up)
# chain: KCTKNALAQTGFNKDKYFNGDVWYVTDYLDLEPDDVPKRYCAALAAGTASGKLKEALYHYDPKTQDTFYDVSELQEESPGKYTANFKKVEKNGNVKVDVTSGNYYTFTVMYADDSSALIHTCLHKGNKDLGDLYAVLNRNKDTNAGDKVKGAVTAASLKFSDFISTKDNKCEYDNVSLKSLLTK
# B3: NP4(K38Q/R39Q/K125Q) (natural protein, Rhodnius prolixus, UniProt Q94734 22-205, looked up)
# chain: ACTKNAIAQTGFNKDKYFNGDVWYVTDYLDLEPDDVPQQYCAALAAGTASGKLKEALYHYDPKTQDTFYDVSELQVESLGKYTANFKKVDKNGNVKVAVTAGNYYTFTVMYADDSSALIHTCLHQGNKDLGDLYAVLNRNKDAAAGDKVKSAVSAATLEFSKFISTKENNCAYDNDSLKSLLTK
# Assays:
# [1] = molecular target: the molecule itself; test: SEC
# [2] = molecular target: the molecule itself; test: SEC; remark: listed apart in the source
Protein,stoichiometry N [1],stoichiometry N [2]
B1,2,
B2,2,
B3,,2
